Reference: US5785967

Experiments:
[1] = biological target: LIF receptors on the surface of DA-1 cells; assay: 125I-LIF binding to intact DA-1 cells, phthalate oil separation
[2] = biological target: Human LIF-R encoded by cDNA clone 65 (pHLIFR-65), expressed on transfected COS-7 cells (human); assay: 125I-LIF binding to COS cells transfected with LIF-R cDNA clone 65, Scatchard analysis
[3] = biological target: Recombinant human leukemia inhibitory factor (LIF) (human) (UniProt P15018); assay: Scatchard analysis, LIF-R/Fc on Protein G Sepharose beads with serial dilutions of 125I-LIF

Row | Substance | Ka [1] | Ka [2] | Ka [3]
1 | Recombinant human leukemia inhibitory factor (LIF) (from UniProt P15018) (ligand) | 7.4e+08 M⁻¹ | > 1e+09 M⁻¹ | –
2 | Soluble human LIF-R/Fc homodimer (Fc fusion) | – | – | 9e+08 M⁻¹
